In patent publication US20230321209A1:

Molecular target: human Adenovirus capsid
Assay: SPR, peptide on adenovirus capsid (FIGS. 13A-13B)

**Q.** Which list of priority (rank by SPR binding, high binders listed first) does the source give for KKKKKKKKKGLVAEWFLAYILFTRFFYVL [R1AB_GLVAE SARS-CoV2 peptide with 9K poly-lysine tail] here?
**A.** The list of priority (rank by SPR binding, high binders listed first) was 1 rank.

**Q.** For KKKKKKALALLLLDRLNQLESKMSGK [NCAP_ALALL SARS-CoV2 peptide with 6K poly-lysine tail], which list of priority (rank by SPR binding, high binders listed first) is on record?
**A.** The list of priority (rank by SPR binding, high binders listed first) was 9 rank.

**Q.** How did the list of priority (rank by SPR binding, high binders listed first) turn out when KKKKKKAQFAPSASAFFGMSRIGMEV [NCAP_AQFAP SARS-CoV2 peptide with 6K poly-lysine tail] was run?
**A.** Its list of priority (rank by SPR binding, high binders listed first) is 7 rank.

**Q.** Which list of priority (rank by SPR binding, high binders listed first) does the source give for KKKKKKKKKGLEAPFLYLYALVYFLQSINFV [AP3A_GLEAP SARS-CoV2 peptide with 9K poly-lysine tail] here?
**A.** Its list of priority (rank by SPR binding, high binders listed first) is 2 rank.

**Q.** Which list of priority (rank by SPR binding, high binders listed first) does the source give for KKKKKKKVTLVFLFVAAIFYLITPVHVMSK [R1AB_KVTLV SARS-CoV2 peptide with 6K poly-lysine tail] here?
**A.** Its list of priority (rank by SPR binding, high binders listed first) is 3 rank.

**Q.** With KKKKKKKKKKLIFLWLLWPVTLACFVLAAV [VME1_KLIFL SARS-CoV2 peptide with 9K poly-lysine tail] as the binder, how does the list of priority (rank by SPR binding, high binders listed first) read?
**A.** The list of priority (rank by SPR binding, high binders listed first) was 4 rank.

**Q.** Which list of priority (rank by SPR binding, high binders listed first) does the source give for KKKKKKLPKEITVATSRTLSYYKLGA [VME1_LPKEI SARS-CoV2 peptide with 6K poly-lysine tail] here?
**A.** The list of priority (rank by SPR binding, high binders listed first) was 6 rank.
